B1: C22orf15 (parent)
chain: PRGRAHLLPNPYQQDFLGLPEELR

Variants of: B1
Test: protein stability index of a GFP-peptide fusion (GPS, HEK-293T) (PSI 1-6); higher = more stable
Conditions: c terminus: a fixed tail appended
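Note: lentivirally expressed fusions sorted by FACS into six bins by GFP to DsRed ratio, PSI derived from sequencing read proportions per bin multiplied by bin number.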

| Variant | protein stability index |
| --- | --- |
| PVGRAHLLPNPYQQDFLGLPEELR [R2V] | 3.81 |
| PDGRAHLLPNPYQQDFLGLPEELR [R2D] | 3.44 |
| PPGRAHLLPNPYQQDFLGLPEELR [R2P] | 4.18 |
| PNGRAHLLPNPYQQDFLGLPEELR [R2N] | 3.46 |
| PTGRAHLLPNPYQQDFLGLPEELR [R2T] | 4.22 |
| PEGRAHLLPNPYQQDFLGLPEELR [R2E] | 4.69 |
| PLGRAHLLPNPYQQDFLGLPEELR [R2L] | 3.76 |
| PKGRAHLLPNPYQQDFLGLPEELR [R2K] | 3.75 |
| PCGRAHLLPNPYQQDFLGLPEELR [R2C] | 2.26 |
| PIGRAHLLPNPYQQDFLGLPEELR [R2I] | 3.62 |
| PMGRAHLLPNPYQQDFLGLPEELR [R2M] | 4.08 |
| PFGRAHLLPNPYQQDFLGLPEELR [R2F] | 3.31 |
| PYGRAHLLPNPYQQDFLGLPEELR [R2Y] | 3.5 |
| PQGRAHLLPNPYQQDFLGLPEELR [R2Q] | 4.24 |
| PHGRAHLLPNPYQQDFLGLPEELR [R2H] | 3.87 |
| PGGRAHLLPNPYQQDFLGLPEELR [R2G] | 4 |
| PSGRAHLLPNPYQQDFLGLPEELR [R2S] | 4.15 |
| PAGRAHLLPNPYQQDFLGLPEELR [R2A] | 4.04 |
| PWGRAHLLPNPYQQDFLGLPEELR [R2W] | 3.33 |
| PRGMAHLLPNPYQQDFLGLPEELR [R4M] | 3.42 |
| PRGNAHLLPNPYQQDFLGLPEELR [R4N] | 3.99 |
| PRGSAHLLPNPYQQDFLGLPEELR [R4S] | 3.81 |
| PRGAAHLLPNPYQQDFLGLPEELR [R4A] | 4.23 |
| PRGIAHLLPNPYQQDFLGLPEELR [R4I] | 3.24 |

| Variant | protein stability index |
| --- | --- |
| PRGKAHLLPNPYQQDFLGLPEELR [R4K] | 3.36 |
| PRGPAHLLPNPYQQDFLGLPEELR [R4P] | 3.92 |
| PRGGAHLLPNPYQQDFLGLPEELR [R4G] | 4.27 |
| PRGQAHLLPNPYQQDFLGLPEELR [R4Q] | 3.73 |
| PRGCAHLLPNPYQQDFLGLPEELR [R4C] | 2.85 |
| PRGLAHLLPNPYQQDFLGLPEELR [R4L] | 3.59 |
| PRGTAHLLPNPYQQDFLGLPEELR [R4T] | 3.68 |
| PRGDAHLLPNPYQQDFLGLPEELR [R4D] | 4.25 |
| PRGWAHLLPNPYQQDFLGLPEELR [R4W] | 2.96 |
| PRGVAHLLPNPYQQDFLGLPEELR [R4V] | 3.86 |
| PRGHAHLLPNPYQQDFLGLPEELR [R4H] | 4.06 |
| PRGEAHLLPNPYQQDFLGLPEELR [R4E] | 3.96 |
| PRGFAHLLPNPYQQDFLGLPEELR [R4F] | 3.77 |
| PRGYAHLLPNPYQQDFLGLPEELR [R4Y] | 3.57 |
| CRGRAHLLPNPYQQDFLGLPEELR [P1C] | 2.22 |
| HRGRAHLLPNPYQQDFLGLPEELR [P1H] | 3.6 |
| NRGRAHLLPNPYQQDFLGLPEELR [P1N] | 3.69 |
| RRGRAHLLPNPYQQDFLGLPEELR [P1R] | 3.06 |
| SRGRAHLLPNPYQQDFLGLPEELR [P1S] | 3.23 |
| IRGRAHLLPNPYQQDFLGLPEELR [P1I] | 2.37 |
| YRGRAHLLPNPYQQDFLGLPEELR [P1Y] | 3.11 |
| GRGRAHLLPNPYQQDFLGLPEELR [P1G] | 3.75 |
| ARGRAHLLPNPYQQDFLGLPEELR [P1A] | 3.34 |
| KRGRAHLLPNPYQQDFLGLPEELR [P1K] | 3.22 |

| Variant | protein stability index |
| --- | --- |
| VRGRAHLLPNPYQQDFLGLPEELR [P1V] | 2.83 |
| QRGRAHLLPNPYQQDFLGLPEELR [P1Q] | 3.72 |
| WRGRAHLLPNPYQQDFLGLPEELR [P1W] | 2.92 |
| FRGRAHLLPNPYQQDFLGLPEELR [P1F] | 2.61 |
| DRGRAHLLPNPYQQDFLGLPEELR [P1D] | 4.1 |
| TRGRAHLLPNPYQQDFLGLPEELR [P1T] | 3.52 |
| ERGRAHLLPNPYQQDFLGLPEELR [P1E] | 3.96 |
| MRGRAHLLPNPYQQDFLGLPEELR [P1M] | 2.93 |
| LRGRAHLLPNPYQQDFLGLPEELR [P1L] | 2.64 |
| PRGRAHCLPNPYQQDFLGLPEELR [L7C] | 3.84 |
| PRGRAHHLPNPYQQDFLGLPEELR [L7H] | 3.9 |
| PRGRAHGLPNPYQQDFLGLPEELR [L7G] | 4.08 |
| PRGRAHELPNPYQQDFLGLPEELR [L7E] | 4.62 |
| PRGRAHDLPNPYQQDFLGLPEELR [L7D] | 3.96 |
| PRGRAHFLPNPYQQDFLGLPEELR [L7F] | 3.84 |
| PRGRAHALPNPYQQDFLGLPEELR [L7A] | 4.23 |
| PRGRADLLPNPYQQDFLGLPEELR [H6D] | 4.4 |
| PRGRALLLPNPYQQDFLGLPEELR [H6L] | 3.44 |
| PRGRAMLLPNPYQQDFLGLPEELR [H6M] | 4.04 |
| PRGRAFLLPNPYQQDFLGLPEELR [H6F] | 2.99 |
| PRGRAGLLPNPYQQDFLGLPEELR [H6G] | 4.26 |
| PRGRAILLPNPYQQDFLGLPEELR [H6I] | 3.65 |
| PRGRACLLPNPYQQDFLGLPEELR [H6C] | 3.68 |
| PRGRATLLPNPYQQDFLGLPEELR [H6T] | 3.87 |

| Variant | protein stability index |
| --- | --- |
| PRGRARLLPNPYQQDFLGLPEELR [H6R] | 3.71 |
| PRGRAKLLPNPYQQDFLGLPEELR [H6K] | 3.87 |
| PRGRANLLPNPYQQDFLGLPEELR [H6N] | 4.26 |
| PRGRASLLPNPYQQDFLGLPEELR [H6S] | 3.81 |
| PRGRAQLLPNPYQQDFLGLPEELR [H6Q] | 3.75 |
| PRGRAPLLPNPYQQDFLGLPEELR [H6P] | 3.93 |
| PRGRAYLLPNPYQQDFLGLPEELR [H6Y] | 3.02 |
| PRGRAELLPNPYQQDFLGLPEELR [H6E] | 4.58 |
| PRGRAVLLPNPYQQDFLGLPEELR [H6V] | 3.54 |
| PRGRAALLPNPYQQDFLGLPEELR [H6A] | 3.57 |
| PRGRAWLLPNPYQQDFLGLPEELR [H6W] | 2.85 |
| PRGRHHLLPNPYQQDFLGLPEELR [A5H] | 3.78 |
| PRGRKHLLPNPYQQDFLGLPEELR [A5K] | 3.32 |
| PRGREHLLPNPYQQDFLGLPEELR [A5E] | 3.9 |
| PRGRVHLLPNPYQQDFLGLPEELR [A5V] | 3.63 |
| PRGRDHLLPNPYQQDFLGLPEELR [A5D] | 4.25 |
| PRGRNHLLPNPYQQDFLGLPEELR [A5N] | 4.1 |
| PRGRMHLLPNPYQQDFLGLPEELR [A5M] | 3.48 |
| PRGRGHLLPNPYQQDFLGLPEELR [A5G] | 3.63 |
| PRGRTHLLPNPYQQDFLGLPEELR [A5T] | 4.05 |
| PRGRPHLLPNPYQQDFLGLPEELR [A5P] | 3.56 |
| PRGRSHLLPNPYQQDFLGLPEELR [A5S] | 4.04 |
